Measurements from US20100081612A1 (GENERAL HOSPITAL, published 2010).
Where no end group is shown, it is not given here. [ ]: non-standard residue; d: D form. Cha = N[C@@H](CC1CCCCC1)C(=O)O

T1: wild-type human PTHR (human, UniProt Q03431 27-593)
T1 construct: whole, on cells; also called PTHR-WT; intact PTHR
T1 sequence (looked up): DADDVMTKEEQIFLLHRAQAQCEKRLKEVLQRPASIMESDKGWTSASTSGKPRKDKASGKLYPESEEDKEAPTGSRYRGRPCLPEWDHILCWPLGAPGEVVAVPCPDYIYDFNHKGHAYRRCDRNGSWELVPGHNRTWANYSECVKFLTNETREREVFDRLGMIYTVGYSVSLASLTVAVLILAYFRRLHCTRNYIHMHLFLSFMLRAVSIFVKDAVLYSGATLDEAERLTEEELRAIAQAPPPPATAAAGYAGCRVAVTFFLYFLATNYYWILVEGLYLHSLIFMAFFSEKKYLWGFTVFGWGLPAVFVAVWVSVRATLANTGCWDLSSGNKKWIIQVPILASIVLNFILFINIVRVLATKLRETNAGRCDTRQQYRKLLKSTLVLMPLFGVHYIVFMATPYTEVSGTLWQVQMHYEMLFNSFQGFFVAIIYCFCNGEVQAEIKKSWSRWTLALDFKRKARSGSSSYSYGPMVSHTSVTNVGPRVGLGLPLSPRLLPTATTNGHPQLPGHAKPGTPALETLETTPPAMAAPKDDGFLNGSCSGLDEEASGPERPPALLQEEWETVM


Tests used:
wild-type human PTHR [1] = target: T1, wild-type human PTHR; test: competition binding, HKRK-B7 cells, 125I-PTH(1-34) tracer
PTHR-delNt (human) = PTHR-delNt (human) (UniProt Q03431); test: competition binding, COS-7 membranes, 125I-[Aib1,3,M]PTH(1-15) tracer
wild-type human PTHR [2] = target: T1, wild-type human PTHR; test: competition binding, HKRK-B7 cells, 125I-PTH(1-34) tracer; remark: listed apart in the source
Protocol: Receptor binding—Binding to the wild-type human PTHR in intact HKRK-B7 cells and ROS 17/2.8 cells was assessed using ¹²⁵I-PTH(1-34) as a tracer radioligand, as described (Shimizu, M., (2001) Endocrinology 142:3068-3074). In brief, the cells in 24-well plates (about 500,000 cells per well) were incubated in binding buffer containing radioligand (about 100,000 cpm per well) with or without unlabeled peptide ligand (3×10⁻⁹ to 1×10⁻⁵ M) for four hours at 15° C. The binding mixture was then removed by aspiration, the cells were rinsed three times with binding buffer, lysed in 1 M NaOH, and the entire lysate was counted for gamma-irradiation in a gamma counter. Binding to PTHR-delNt in COS-7 cell membranes was assessed in 96-well, vacuum filtration plates (Multiscreen-Durapore HV, […], Millipore Corp., Millford, Mass.) using ¹²⁵I-[Aib^{1,3},M]PTH(1-15)NH₂ as a tracer radioligand, as described (Dean, T., (2006) Mol Endocrinol 20:931-942). In brief, cell membranes (20 μg/well) were incubated in membrane binding buffer containing radioligand (30,000 cpm/well) with or without unlabeled peptide ligand (3×10⁻⁹ to 1×10⁻⁵ M) for 90 minutes at 21° C. The plates were then subject to rapid vacuum filtration, the filters were washed once with buffer, detached from the plate and counted for gamma-irradiation in a gamma counter. Non-specific binding was defined as the binding observed in the presence of 1×10⁻⁶ M PTH(1-31)NH₂ for HKRK-B7 and ROS 17/2.8 cells, and 1×10⁻⁶ M [Aib^{1,3},M]PTH(1-15)NH₂ for PTHR-delNt. Specifically bound radioactivity was calculated as a percentage of the radioactivity specifically bound in the absence of competing ligand.
Cyclohexylalanine and glutamate substitutions were introduced into [Ala¹,Arg¹⁹]hPTH(1-31)NH₂. The helical residue values were calculated from [θ]₂₂₂, the mean-residue elipticities observed in the CD spectra at 222 nm. Competition binding studies were performed in intact HKRK-B7 cells stably transfected with the hPTHR using ¹²⁵I-[Nle^{8,21},Tyr³⁴]rPTH(1-34)NH ₂ tracer radioligand, and in membranes prepared from COS-7 cells transiently transfected with hPTHR-delNt and a negative-dominant Gαs using ¹²⁵I-[Aib^{1,3},Nle⁸,Gln¹⁰,Har¹¹,Ala¹²,Trp¹⁴,Tyr¹⁵]rPTH(1-15)NH₂ tracer radioligand. Binding values (nM) are means (+/−s.e.m.) of data from the number of experiments indicated (n).

Binder	fold change in binding affinity vs [Ala^1,Arg^19]PTH(1-31)NH2 (wild-type human PTHR [1]) [fold]	IC50 (PTHR-delNt (human)) [nM]	fold change in binding affinity vs [Ala^1,Arg^19]PTH(1-31)NH2 (PTHR-delNt (human)) [fold]	IC50 (wild-type human PTHR [2]) [nM]
AVSEIQLMHNLGKHLNS[Cha]RRVEWLRKKLQDV-NH2 (N-terminus assumed; SMILES CC[C@H](C)[C@H](NC(=O)[C@H](CCC(=O)O)NC(=O)[C@H](CO)NC(=O)[C@@H](NC(=O)[C@H](C)N)C(C)C)C(=O)N[C@@H](CCC(N)=O)C(=O)N[C@@H](CC(C)C)C(=O)N[C@@H](CCSC)C(=O)N[C@@H](Cc1c[nH]cn1)C(=O)N[C@@H](CC(N)=O)C(=O)N[C@@H](CC(C)C)C(=O)NCC(=O)N[C@@H](CCCCN)C(=O)N[C@@H](Cc1c[nH]cn1)C(=O)N[C@@H](CC(C)C)C(=O)N[C@@H](CC(N)=O)C(=O)N[C@@H](CO)C(=O)N[C@@H](CC1CCCCC1)C(=O)N[C@@H](CCCNC(=N)N)C(=O)N[C@@H](CCCNC(=N)N)C(=O)N[C@H](C(=O)N[C@@H](CCC(=O)O)C(=O)N[C@@H](Cc1c[nH]c2ccccc12)C(=O)N[C@@H](CC(C)C)C(=O)N[C@@H](CCCNC(=N)N)C(=O)N[C@@H](CCCCN)C(=O)N[C@@H](CCCCN)C(=O)N[C@@H](CC(C)C)C(=O)N[C@@H](CCC(N)=O)C(=O)N[C@@H](CC(=O)O)C(=O)N[C@H](C(N)=O)C(C)C)C(C)C) [[Ala^1,Arg^19]hPTH(1-31)NH2 Met^18→Cha]	≤ 6	408	< 3	87
AVSEIQLMHNLGKHLNSM[Cha]RVEWLRKKLQDV-NH2 (N-terminus assumed; SMILES CC[C@H](C)[C@H](NC(=O)[C@H](CCC(=O)O)NC(=O)[C@H](CO)NC(=O)[C@@H](NC(=O)[C@H](C)N)C(C)C)C(=O)N[C@@H](CCC(N)=O)C(=O)N[C@@H](CC(C)C)C(=O)N[C@@H](CCSC)C(=O)N[C@@H](Cc1c[nH]cn1)C(=O)N[C@@H](CC(N)=O)C(=O)N[C@@H](CC(C)C)C(=O)NCC(=O)N[C@@H](CCCCN)C(=O)N[C@@H](Cc1c[nH]cn1)C(=O)N[C@@H](CC(C)C)C(=O)N[C@@H](CC(N)=O)C(=O)N[C@@H](CO)C(=O)N[C@@H](CCSC)C(=O)N[C@@H](CC1CCCCC1)C(=O)N[C@@H](CCCNC(=N)N)C(=O)N[C@H](C(=O)N[C@@H](CCC(=O)O)C(=O)N[C@@H](Cc1c[nH]c2ccccc12)C(=O)N[C@@H](CC(C)C)C(=O)N[C@@H](CCCNC(=N)N)C(=O)N[C@@H](CCCCN)C(=O)N[C@@H](CCCCN)C(=O)N[C@@H](CC(C)C)C(=O)N[C@@H](CCC(N)=O)C(=O)N[C@@H](CC(=O)O)C(=O)N[C@H](C(N)=O)C(C)C)C(C)C) [[Ala^1,Arg^19]hPTH(1-31)NH2 Arg^19→Cha]	≤ 6	780	< 3	233
AVSEIQLMHNLGKHLNSMRR[Cha]EWLRKKLQDV-NH2 (N-terminus assumed; SMILES CC[C@H](C)[C@H](NC(=O)[C@H](CCC(=O)O)NC(=O)[C@H](CO)NC(=O)[C@@H](NC(=O)[C@H](C)N)C(C)C)C(=O)N[C@@H](CCC(N)=O)C(=O)N[C@@H](CC(C)C)C(=O)N[C@@H](CCSC)C(=O)N[C@@H](Cc1c[nH]cn1)C(=O)N[C@@H](CC(N)=O)C(=O)N[C@@H](CC(C)C)C(=O)NCC(=O)N[C@@H](CCCCN)C(=O)N[C@@H](Cc1c[nH]cn1)C(=O)N[C@@H](CC(C)C)C(=O)N[C@@H](CC(N)=O)C(=O)N[C@@H](CO)C(=O)N[C@@H](CCSC)C(=O)N[C@@H](CCCNC(=N)N)C(=O)N[C@@H](CCCNC(=N)N)C(=O)N[C@@H](CC1CCCCC1)C(=O)N[C@@H](CCC(=O)O)C(=O)N[C@@H](Cc1c[nH]c2ccccc12)C(=O)N[C@@H](CC(C)C)C(=O)N[C@@H](CCCNC(=N)N)C(=O)N[C@@H](CCCCN)C(=O)N[C@@H](CCCCN)C(=O)N[C@@H](CC(C)C)C(=O)N[C@@H](CCC(N)=O)C(=O)N[C@@H](CC(=O)O)C(=O)N[C@H](C(N)=O)C(C)C) [[Ala^1,Arg^19]hPTH(1-31)NH2 Val^21→Cha]	≤ 6	564	< 3	74
